B1: EHEE_rd2_0196 (parent)
chain: TETRTFDSEEEAKKAQKEAEKQGRTVTITRRDDRWEVRFD

Variants of: B1
Experiment: folding stability dG (cDNA display proteolysis); higher = more stable
Conditions: PBS, room temperature

Variant | folding stability dG
TEDRTFDSEEEAKKAQKEAEKQGRTVTITRRDDRWEVRFD [T3D] | 1.93 kcal/mol
TEFRTFDSEEEAKKAQKEAEKQGRTVTITRRDDRWEVRFD [T3F] | 3.2 kcal/mol
TEARTFDSEEEAKKAQKEAEKQGRTVTITRRDDRWEVRFD [T3A] | 2.66 kcal/mol
TEYRTFDSEEEAKKAQKEAEKQGRTVTITRRDDRWEVRFD [T3Y] | 3.11 kcal/mol
TEVRTFDSEEEAKKAQKEAEKQGRTVTITRRDDRWEVRFD [T3V] | 3.38 kcal/mol
TERRTFDSEEEAKKAQKEAEKQGRTVTITRRDDRWEVRFD [T3R] | 2.54 kcal/mol
TEKRTFDSEEEAKKAQKEAEKQGRTVTITRRDDRWEVRFD [T3K] | 2.48 kcal/mol
TEMRTFDSEEEAKKAQKEAEKQGRTVTITRRDDRWEVRFD [T3M] | 3.03 kcal/mol
TECRTFDSEEEAKKAQKEAEKQGRTVTITRRDDRWEVRFD [T3C] | 3.22 kcal/mol
TEQRTFDSEEEAKKAQKEAEKQGRTVTITRRDDRWEVRFD [T3Q] | 2.46 kcal/mol
TEPRTFDSEEEAKKAQKEAEKQGRTVTITRRDDRWEVRFD [T3P] | 2.73 kcal/mol
TESRTFDSEEEAKKAQKEAEKQGRTVTITRRDDRWEVRFD [T3S] | 2.62 kcal/mol
TEERTFDSEEEAKKAQKEAEKQGRTVTITRRDDRWEVRFD [T3E] | 2.08 kcal/mol
TEIRTFDSEEEAKKAQKEAEKQGRTVTITRRDDRWEVRFD [T3I] | 3.35 kcal/mol
TEHRTFDSEEEAKKAQKEAEKQGRTVTITRRDDRWEVRFD [T3H] | 2.55 kcal/mol
TENRTFDSEEEAKKAQKEAEKQGRTVTITRRDDRWEVRFD [T3N] | 2.33 kcal/mol
TELRTFDSEEEAKKAQKEAEKQGRTVTITRRDDRWEVRFD [T3L] | 3.15 kcal/mol
TEGRTFDSEEEAKKAQKEAEKQGRTVTITRRDDRWEVRFD [T3G] | 2.17 kcal/mol
TEWRTFDSEEEAKKAQKEAEKQGRTVTITRRDDRWEVRFD [T3W] | 3.06 kcal/mol
TETETFDSEEEAKKAQKEAEKQGRTVTITRRDDRWEVRFD [R4E] | 2.36 kcal/mol
TETGTFDSEEEAKKAQKEAEKQGRTVTITRRDDRWEVRFD [R4G] | 1.85 kcal/mol

Variant | folding stability dG
TETDTFDSEEEAKKAQKEAEKQGRTVTITRRDDRWEVRFD [R4D] | 1.6 kcal/mol
TETATFDSEEEAKKAQKEAEKQGRTVTITRRDDRWEVRFD [R4A] | 2.65 kcal/mol
TETITFDSEEEAKKAQKEAEKQGRTVTITRRDDRWEVRFD [R4I] | 3.1 kcal/mol
TETFTFDSEEEAKKAQKEAEKQGRTVTITRRDDRWEVRFD [R4F] | 3.15 kcal/mol
TETHTFDSEEEAKKAQKEAEKQGRTVTITRRDDRWEVRFD [R4H] | 2.77 kcal/mol
TVTRTFDSEEEAKKAQKEAEKQGRTVTITRRDDRWEVRFD [E2V] | 3.15 kcal/mol
TITRTFDSEEEAKKAQKEAEKQGRTVTITRRDDRWEVRFD [E2I] | 3.23 kcal/mol
TYTRTFDSEEEAKKAQKEAEKQGRTVTITRRDDRWEVRFD [E2Y] | 3.19 kcal/mol
TQTRTFDSEEEAKKAQKEAEKQGRTVTITRRDDRWEVRFD [E2Q] | 3.03 kcal/mol
TFTRTFDSEEEAKKAQKEAEKQGRTVTITRRDDRWEVRFD [E2F] | 3.13 kcal/mol
TWTRTFDSEEEAKKAQKEAEKQGRTVTITRRDDRWEVRFD [E2W] | 3.24 kcal/mol
TNTRTFDSEEEAKKAQKEAEKQGRTVTITRRDDRWEVRFD [E2N] | 2.94 kcal/mol
TKTRTFDSEEEAKKAQKEAEKQGRTVTITRRDDRWEVRFD [E2K] | 2.86 kcal/mol
THTRTFDSEEEAKKAQKEAEKQGRTVTITRRDDRWEVRFD [E2H] | 3.05 kcal/mol
TPTRTFDSEEEAKKAQKEAEKQGRTVTITRRDDRWEVRFD [E2P] | 2.48 kcal/mol
TTTRTFDSEEEAKKAQKEAEKQGRTVTITRRDDRWEVRFD [E2T] | 3.11 kcal/mol
TSTRTFDSEEEAKKAQKEAEKQGRTVTITRRDDRWEVRFD [E2S] | 2.95 kcal/mol
TGTRTFDSEEEAKKAQKEAEKQGRTVTITRRDDRWEVRFD [E2G] | 2.79 kcal/mol
TLTRTFDSEEEAKKAQKEAEKQGRTVTITRRDDRWEVRFD [E2L] | 2.98 kcal/mol
TRTRTFDSEEEAKKAQKEAEKQGRTVTITRRDDRWEVRFD [E2R] | 2.89 kcal/mol
TMTRTFDSEEEAKKAQKEAEKQGRTVTITRRDDRWEVRFD [E2M] | 2.95 kcal/mol

Variant | folding stability dG
TATRTFDSEEEAKKAQKEAEKQGRTVTITRRDDRWEVRFD [E2A] | 2.84 kcal/mol
TDTRTFDSEEEAKKAQKEAEKQGRTVTITRRDDRWEVRFD [E2D] | 2.71 kcal/mol
EETRTFDSEEEAKKAQKEAEKQGRTVTITRRDDRWEVRFD [T1E] | 2.93 kcal/mol
QETRTFDSEEEAKKAQKEAEKQGRTVTITRRDDRWEVRFD [T1Q] | 2.98 kcal/mol
IETRTFDSEEEAKKAQKEAEKQGRTVTITRRDDRWEVRFD [T1I] | 3.08 kcal/mol
NETRTFDSEEEAKKAQKEAEKQGRTVTITRRDDRWEVRFD [T1N] | 2.93 kcal/mol
AETRTFDSEEEAKKAQKEAEKQGRTVTITRRDDRWEVRFD [T1A] | 3.08 kcal/mol
VETRTFDSEEEAKKAQKEAEKQGRTVTITRRDDRWEVRFD [T1V] | 3.21 kcal/mol
SETRTFDSEEEAKKAQKEAEKQGRTVTITRRDDRWEVRFD [T1S] | 3.13 kcal/mol
WETRTFDSEEEAKKAQKEAEKQGRTVTITRRDDRWEVRFD [T1W] | 3.67 kcal/mol
PETRTFDSEEEAKKAQKEAEKQGRTVTITRRDDRWEVRFD [T1P] | 3.02 kcal/mol
HETRTFDSEEEAKKAQKEAEKQGRTVTITRRDDRWEVRFD [T1H] | 3.05 kcal/mol
GETRTFDSEEEAKKAQKEAEKQGRTVTITRRDDRWEVRFD [T1G] | 2.96 kcal/mol
CETRTFDSEEEAKKAQKEAEKQGRTVTITRRDDRWEVRFD [T1C] | 2.81 kcal/mol
METRTFDSEEEAKKAQKEAEKQGRTVTITRRDDRWEVRFD [T1M] | 3.12 kcal/mol
LETRTFDSEEEAKKAQKEAEKQGRTVTITRRDDRWEVRFD [T1L] | 3.04 kcal/mol
KETRTFDSEEEAKKAQKEAEKQGRTVTITRRDDRWEVRFD [T1K] | 2.76 kcal/mol
YETRTFDSEEEAKKAQKEAEKQGRTVTITRRDDRWEVRFD [T1Y] | 3.48 kcal/mol
FETRTFDSEEEAKKAQKEAEKQGRTVTITRRDDRWEVRFD [T1F] | 3.38 kcal/mol
RETRTFDSEEEAKKAQKEAEKQGRTVTITRRDDRWEVRFD [T1R] | 2.81 kcal/mol
DETRTFDSEEEAKKAQKEAEKQGRTVTITRRDDRWEVRFD [T1D] | 2.95 kcal/mol
